Laboratory results from article PMC6323126, “Architecture, substructures, and dynamic assembly of STRIPAK complexes in Hippo signaling” (Cell Discovery, 2019).

T1: C-terminal domain (residues 421–837) of STRIP1, recombinant (UniProt Q5VSL9 421-837)
T1 sequence (looked up): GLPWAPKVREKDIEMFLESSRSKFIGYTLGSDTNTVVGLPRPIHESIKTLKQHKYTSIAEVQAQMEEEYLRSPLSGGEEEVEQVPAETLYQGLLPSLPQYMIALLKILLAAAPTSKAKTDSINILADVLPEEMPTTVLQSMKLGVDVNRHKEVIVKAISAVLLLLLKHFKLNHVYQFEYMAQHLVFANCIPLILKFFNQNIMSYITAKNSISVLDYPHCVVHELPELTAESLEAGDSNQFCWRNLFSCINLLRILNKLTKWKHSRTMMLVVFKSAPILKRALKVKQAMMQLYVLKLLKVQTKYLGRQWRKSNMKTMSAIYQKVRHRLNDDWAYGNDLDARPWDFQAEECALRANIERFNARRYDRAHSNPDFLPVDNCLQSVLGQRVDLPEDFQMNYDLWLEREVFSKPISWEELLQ

T2: FHA domain (residues 5–135) of SLMAP (human, UniProt Q14BN4 5-135)
T2 construct: also called SLMAP (FHA); SLMAP FHA domain; source: E. coli BL21 (DE3) CodonPlus, purified
T2 sequence (looked up): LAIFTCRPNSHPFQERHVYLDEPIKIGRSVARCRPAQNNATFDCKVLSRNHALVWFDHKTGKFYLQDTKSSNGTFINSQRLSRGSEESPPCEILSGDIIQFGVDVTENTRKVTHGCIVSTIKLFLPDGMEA

B1: STRN3 peptide (residues 166–190) (peptide, UniProt Q13033 166-190, looked up)
peptide: QNSQLTWKQGRQLLRQYLQEVGYTD
B2: STRIP1 (765–837) (domain or fragment, UniProt Q5VSL9 765-837, looked up)
chain: QAEECALRANIERFNARRYDRAHSNPDFLPVDNCLQSVLGQRVDLPEDFQMNYDLWLEREVFSKPISWEELLQ
B3: MST4 (recombinant) (enzyme)
chain: not shown
notes: MST4 (STK26), human; also called STK26; source: E. coli BL21 (DE3) CodonPlus, purified
B4: STRN3 coiled-coil domain (CC, amino acid residues 64–145) (domain or fragment, human, UniProt Q13033 64-145, looked up)
chain: TIPGILHYIQHEWARFEMERAHWEVERAELQARIAFLQGERKGQENLKKDLVRRIKMLEYALKQERAKYHKLKYGTELNQGD
notes: also called STRN3 CC; source: E. coli BL21 (DE3) CodonPlus, purified
B5: MST2 middle linker region (residues 308–435) (domain or fragment, human, UniProt Q13188 308-435, looked up)
chain: ELEEEEENSDEDELDSHTMVKTSVESVGTMRATSTMSEGAQTMIEHNSTMLESDLGTMVINSEDEEEEDGTMKRNATSPQVQRPSFMDYFDKQDFKNKSHENCNQNMHEPFPMSKNVFPDNWKVPQDG
notes: also called linker region of MST2; source: E. coli BL21 (DE3) CodonPlus, purified
B6: MST4 kinase domain (residues 1–300) (domain or fragment)
chain: not shown
notes: MST4 (STK26), human, residues 1-300; also called N-terminal kinase domain of MST4; source: E. coli BL21 (DE3) CodonPlus, purified
B7: MST2 kinase domain (residues 1–308) (domain or fragment, human, UniProt Q13188 1-308, looked up)
chain: MEQPPAPKSKLKKLSEDSLTKQPEEVFDVLEKLGEGSYGSVFKAIHKESGQVVAIKQVPVESDLQEIIKEISIMQQCDSPYVVKYYGSYFKNTDLWIVMEYCGAGSVSDIIRLRNKTLIEDEIATILKSTLKGLEYLHFMRKIHRDIKAGNILLNTEGHAKLADFGVAGQLTDTMAKRNTVIGTPFWMAPEVIQEIGYNCVADIWSLGITSIEMAEGKPPYADIHPMRAIFMIPTNPPPTFRKPELWSDDFTDFVKKCLVKNPEQRATATQLLQHPFIKNAKPVSILRDLITEAMEIKAKRHEEQQRE
notes: also called kinase domain of MST2; source: E. coli BL21 (DE3) CodonPlus, purified
B8: STRN3 fragment (residues 64–341), tag not told (domain or fragment, human, UniProt Q13033 64-341, looked up)
chain: TIPGILHYIQHEWARFEMERAHWEVERAELQARIAFLQGERKGQENLKKDLVRRIKMLEYALKQERAKYHKLKYGTELNQGDLKMPTFESEETKDTEAPTAPQNSQLTWKQGRQLLRQYLQEVGYTDTILDVRSQRVRSLLGLSNSEPNGSVETKNLEQILNGGESPKQKGQEIKRSSGDVLETFNFLENADDSDEDEENDMIEGIPEGKDKHRMNKHKIGNEGLAADLTDDPDTEEALKEFDFLVTAEDGEGAGEARSSGDGTEWDKDDLSPTAEVW
notes: source: E. coli BL21 (DE3) CodonPlus, purified
B9: MBP-tagged STRN3 fragment (residues 64–341) (domain or fragment, human, UniProt Q13033 64-341, looked up)
chain: B8 chain
notes: source: E. coli BL21 (DE3) CodonPlus, purified; not shown: MBP, N-terminal, kept
B10: SIKE1 second coiled-coil (CC2) region, residues 72–121 (domain or fragment, human, UniProt Q9BRV8 72-121, looked up)
chain: LLSQENTQIRDLQQENRELWISLEEHQDALELIMSKYRKQMLQLMVAKKA
notes: Homotetramer in the apo crystal, homodimer in the crystal with the STRN3 peptide; A Se-Met form was used for phasing; also called SIKE1 CC2; source: E. coli BL21 (DE3) CodonPlus, purified
B11: MST2 (recombinant, wildtype) (enzyme, human, UniProt Q13188 1-491, looked up)
chain: MEQPPAPKSKLKKLSEDSLTKQPEEVFDVLEKLGEGSYGSVFKAIHKESGQVVAIKQVPVESDLQEIIKEISIMQQCDSPYVVKYYGSYFKNTDLWIVMEYCGAGSVSDIIRLRNKTLIEDEIATILKSTLKGLEYLHFMRKIHRDIKAGNILLNTEGHAKLADFGVAGQLTDTMAKRNTVIGTPFWMAPEVIQEIGYNCVADIWSLGITSIEMAEGKPPYADIHPMRAIFMIPTNPPPTFRKPELWSDDFTDFVKKCLVKNPEQRATATQLLQHPFIKNAKPVSILRDLITEAMEIKAKRHEEQQRELEEEEENSDEDELDSHTMVKTSVESVGTMRATSTMSEGAQTMIEHNSTMLESDLGTMVINSEDEEEEDGTMKRNATSPQVQRPSFMDYFDKQDFKNKSHENCNQNMHEPFPMSKNVFPDNWKVPQDGDFDFLKNLSLEELQMRLKALDPMMEREIEELRQRYTAKRQPILDAMDAKKRRQQNF
notes: MST2 (STK3), human; also called STK3; Hippo kinase MST2; source: E. coli BL21 (DE3) CodonPlus, purified
B12: GST-tagged MST2 (enzyme, human, UniProt Q13188 1-491, looked up)
chain: B11 chain
notes: MST2 (STK3), human; also called MST2/pMST2; source: E. coli BL21 (DE3) CodonPlus, purified; not shown: GST, N-terminal, kept
B13: SIKE1 CC1 (residues 5–65) (domain or fragment, human, UniProt Q9BRV8 5-65, looked up)
chain: IEKILTDAKTLLERLREHDAAAESLVDQSAALHRRVAAMREAGTALPDQYQEDASDMKDMS
notes: SIKE1, human, residues 5-65; Homodimer within the 2:2 crystal complex; also called residues 5–65 of SIKE1; source: E. coli BL21 (DE3) CodonPlus, purified

How the values were obtained:
[1] = target: B10; assay: crystal structure; SIKE1 CC2 mixed with STRN3 peptide (166–190) at 1:1.2 molar ratio, 1.75 Å; 35% MPD, 0.1 M imidazole (pH 7.5), 16 °C; settings: both partners purified
[2] = target: B10; assay: ITC; iTC200, 25 °C, 20 mM HEPES (pH 7.5), 100 mM NaCl; settings: both partners purified
[3] = target: B4; assay: as above; settings: both partners purified
[4] = target: T3, STRIP1 (full-length, His-tagged, insect cells) (UniProt Q5VSL9 1-837); assay: pull-down; GST pulldown: GST-tagged protein, partner and glutathione Sepharose mixed at 4 °C for 1 h in 20 mM HEPES (pH 7.5), 100 mM NaCl; eluted with 20 mM reduced glutathione; SDS-PAGE, Coomassie staining; settings: both partners purified
T3 construct: STRIP1, full length; His tag is TEV-cleavable; also called His-STRIP1; FAM40A; source: High Five insect cells (baculovirus), purified

[5] = target: T3, STRIP1 (full-length, His-tagged, insect …); assay: pull-down; MBP pulldown: MBP-tagged protein, partner and amylose resin mixed at 4 °C for 1 h in 20 mM HEPES (pH 7.5), 100 mM NaCl; eluted with 20 mM maltose; SDS-PAGE, Coomassie staining; settings: both partners purified
[6] = target: B11; assay: pull-down; GST pulldown: GST-tagged protein, partner and glutathione Sepharose mixed at 4 °C for 1 h in 20 mM HEPES (pH 7.5), 100 mM NaCl; eluted with 20 mM reduced glutathione; SDS-PAGE, Coomassie staining; settings: both partners purified
[7] = target: B6; assay: pull-down; pulldown with purified recombinant proteins shown in supplementary figures; whether GST or MBP and who carried the tag not told; settings: both partners purified
[8] = target: T1, C-terminal domain (residues 421–837) of …; assay: as above; settings: both partners purified
[9] = target: T2, FHA domain (residues 5–135) of SLMAP; assay: pull-down; GST pulldown: GST-tagged protein, partner and glutathione Sepharose mixed at 4 °C for 1 h in 20 mM HEPES (pH 7.5), 100 mM NaCl; eluted with 20 mM reduced glutathione; SDS-PAGE, Coomassie staining; settings: both partners purified
[10] = target: T3, STRIP1 (full-length, His-tagged, insect …); assay: pull-down; pulldown with purified recombinant proteins shown in supplementary figures; whether GST or MBP and who carried the tag not told; settings: both partners purified
[11] = target: the molecule itself; assay: crystal structure; SIKE1 CC2 mixed with STRN3 peptide (166–190) at 1:1.2 molar ratio, 1.75 Å; 35% MPD, 0.1 M imidazole (pH 7.5), 16 °C
[12] = target: the molecule itself; assay: crystal structure; apo SIKE1 CC2, 1.5 Å; 0.1 M Tris (pH 8.5), 0.7 M ammonium tartrate dibasic, 16 °C
[13] = target: T3, STRIP1 (full-length, His-tagged, insect …); assay: pull-down; pulldown with the kinase dephosphorylated with λPPase and then autophosphorylated with ATP (and magnesium ion); settings: both partners purified
[14] = target: the molecule itself; assay: crystal structure; SIKE1 CC1-SLMAP CC1 complex reconstituted 1:1 and gel-filtered, 2.3 Å; 0.1 M sodium citrate (pH 5.5), 15% PEG 6000, 16 °C

Binder: B1
- stoichiometry N [1]: 2 SIKE1 CC2 per STRN3 peptide
- Kd [2]: 2900 nM

Binder: B2
- Kd [3]: 1600 nM

Binder: B3
- binding result [4]: binds

Binder: B4
- binding result [5]: binds
- binding result [6]: binds
- binding result [7]: binds
- binding result [8]: binds

Binder: B5
- binding result [9]: binds

Binder: B6
- binding result [10]: binds

Binder: B7
- binding result [5]: binds

Binder: B8
- binding result [6]: binds

Binder: B9
- binding result [5]: binds

Binder: B10
- stoichiometry N [11]: 2
- stoichiometry N [12]: 4

Binder: B11
- binding result [4]: binds

Binder: B12
- binding result [13]: binds

Binder: B13
- stoichiometry N [14]: 2
